Laboratory results from US20240092919A1 (Ablynx, published 2024).
Numbering of substitutions follows the chain as printed.

T1: Cynomolgus TCR(AEA41865/AEA41866)-zipper protein (cynomolgus monkey)
T1 construct: also called cyTCR-zipper protein; cynoTCR zipper
T1 TCR alpha: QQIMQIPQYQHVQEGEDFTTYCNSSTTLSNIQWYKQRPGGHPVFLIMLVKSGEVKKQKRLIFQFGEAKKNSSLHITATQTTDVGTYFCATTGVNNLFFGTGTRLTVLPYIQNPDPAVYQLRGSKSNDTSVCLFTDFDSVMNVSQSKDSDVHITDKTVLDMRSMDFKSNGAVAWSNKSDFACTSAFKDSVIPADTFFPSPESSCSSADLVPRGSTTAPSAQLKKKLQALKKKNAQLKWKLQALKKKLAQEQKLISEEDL
T1 TCR beta: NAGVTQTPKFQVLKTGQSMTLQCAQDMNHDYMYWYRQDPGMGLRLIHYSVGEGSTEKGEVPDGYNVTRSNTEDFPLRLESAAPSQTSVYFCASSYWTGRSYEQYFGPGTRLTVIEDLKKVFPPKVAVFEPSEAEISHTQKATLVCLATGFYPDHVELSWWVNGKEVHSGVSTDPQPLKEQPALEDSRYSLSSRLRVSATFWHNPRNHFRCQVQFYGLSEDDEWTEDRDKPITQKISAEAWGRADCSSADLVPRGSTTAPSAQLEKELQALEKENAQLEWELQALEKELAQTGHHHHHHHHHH

B1: T017000408 (VHH)
VHH: EVQLVESGGGVVQPGGSLRLSCVASGSVHKINFYGWYRQAPGKEREKVAHISIGDQTDYADSAKGRFTISRDESKNMVYLQMNSLRPEDTALYFCRAMSRIWPYDYWGQGTLVTVSS
B2: T017000515 (VHH)
VHH: B1 VHH with S27A, Y34L
B3: T017000750 (VHH)
VHH: B1 VHH with G26Y, S27A, K30Q
B4: T017000509 (VHH)
VHH: B1 VHH with S27A, Y34L, R100K, Y106W
B5: T017000518 (VHH)
VHH: B1 VHH with G26Y, K30Q, I31L, Y34L
B6: T017000547 (VHH)
VHH: B1 VHH with S27A, I31L, M98F
B7: T017000550 (VHH)
VHH: B1 VHH with K30Q, Y34L, W102Y, Y106W
B8: T017000415 (VHH)
VHH: B1 VHH with G26W, S27D, K30Q
B9: T017000423 (VHH)
VHH: B1 VHH with K30Q, Y34L
B10: T017000776 (VHH)
VHH: B1 VHH with G26W, K30Q, R100K
B11: T017000766 (VHH)
VHH: B1 VHH with S27Y, R100K, W102Y
B12: T017000612 (VHH)
VHH: B1 VHH with S27D, K30Q, I31L, Y34L, M98L, R100K, W102Y
B13: T017000609 (VHH)
VHH: B1 VHH with S27D, K30Q, Y34L, M98F, R100K, W102Y
B14: T017000531 (VHH)
VHH: B1 VHH with Y34L, Y106W
B15: T017000440 (VHH)
VHH: B1 VHH with G26W, S27D, I31L, R100K
B16: T017000578 (VHH)
VHH: B1 VHH with G26Y, S27D, K30Q, I31L
B17: T017000614 (VHH)
VHH: B1 VHH with S27Y, M98L
B18: T017000450 (VHH)
VHH: B1 VHH with S27Y, K30Q, Y34L
B19: T017000530 (VHH)
VHH: B1 VHH with S27A, I31L, Y34L, G65D, W102Y
B20: T017000754 (VHH)
VHH: B1 VHH with S27Y, K30Q, Y34L, R100K
B21: T017000461 (VHH)
VHH: B1 VHH with S27D, K30Q
B22: T017000577 (VHH)
VHH: B1 VHH with G26W, S27D, K30Q, Y34L, W102Y
B23: T017000432 (VHH)
VHH: B1 VHH with I31L, R100K
B24: T017000505 (VHH)
VHH: B1 VHH with S27D, K30Q, I31L, Y34L, M98F, R100K, W102Y
B25: T017000410 (VHH)
VHH: B1 VHH with S27Y, I31L, M98F, Y106W
B26: T017000539 (VHH)
VHH: B1 VHH with S27Y, Y106W
B27: T017000419 (VHH)
VHH: B1 VHH with S27A, I31L
B28: T017000740 (VHH)
VHH: B1 VHH with G26W, S27D, K30Q, I31L, R100K, W102Y
B29: T017000589 (VHH)
VHH: B1 VHH with S27Y, I31L, Y106W
B30: T017000593 (VHH)
VHH: B1 VHH with S27A, I31L, R100K
B31: T017000411 (VHH)
VHH: B1 VHH with G26W, S27D
B32: T017000554 (VHH)
VHH: B1 VHH with G26Y, S27D, K30Q, Y34L, R100K, W102Y
B33: T017000759 (VHH)
VHH: B1 VHH with M98F, R100K, Y106W
B34: T017000473 (VHH)
VHH: B1 VHH with S27Y, K30Q, W102Y
B35: T017000443 (VHH)
VHH: B1 VHH with G26W, S27D, K30Q, R100K, W102Y
B36: T017000538 (VHH)
VHH: B1 VHH with S27Y, I31L
B37: T017000418 (VHH)
VHH: B1 VHH with S27A, I31L, W102Y
B38: T017000566 (VHH)
VHH: B1 VHH with S27Y, I31L, Y34L, Y106W
B39: T017000757 (VHH)
VHH: B1 VHH with S27A, I31L, Y34L, M98F, R100K, Y106W
B40: T017000442 (VHH)
VHH: B1 VHH with S27Y, I31L, W102Y
B41: T017000610 (VHH)
VHH: B1 VHH with S27D, K30Q, Y34L, M98L, R100K, W102Y
B42: T017000434 (VHH)
VHH: B1 VHH with I31L, W102Y
B43: T017000611 (VHH)
VHH: B1 VHH with S27D, K30Q, M98F, R100K, W102Y
B44: T017000608 (VHH)
VHH: B1 VHH with G26W, S27D, M98F, R100K
B45: T017000774 (VHH)
VHH: B1 VHH with S27D, K30Q, R100K
B46: T017000499 (VHH)
VHH: B1 VHH with S27Y, I31L, Y34L
B47: T017000607 (VHH)
VHH: B1 VHH with G26W, S27D, K30Q, M98F, R100K
B48: T017000413 (VHH)
VHH: B1 VHH with G26W, S27D, K30Q, I31L, R100K
B49: T017000521 (VHH)
VHH: B1 VHH with K30Q, I31L
B50: T017000742 (VHH)
VHH: B1 VHH with S27Y, K30Q, Y106W
B51: T017000498 (VHH)
VHH: B1 VHH with S27A, Y106W
B52: T017000588 (VHH)
VHH: B1 VHH with S27A, R100K

Biological target: T1, Cynomolgus …
Assay: SPR ProteOn off-rate screen
Text: Unique ISVD clones, i.e. clones with a unique sequence, were subsequently selected and screened to determine their off-rate. To this purpose, the ISVD containing periplasmic extracts were screened on huTCR-zipper and cyTCR-zipper protein by SPR on a ProteOn XPR36 instrument. The zipper proteins were immobilized on a GLC sensor chip (between 4300 and 5100RU) via amine coupling chemistry, using EDC/sulfo-NHS for activation of the carboxyl groups on the chip surface (running buffer: HBS-EP+, pH7.4). Periplasmic extracts were injected at 1/10 dilution for 2 min (at a flow rate of 45 μL/min) and dissociation was followed for 900 s. A pulse of 100 s of 3 M MgCl2 at 45 μL/min was used for regeneration. […] Processed sensorgrams were fitted with the Langmuir model (1:1 interaction) using ProteOn Manager 3.1.0 (Version 3.1.0.6) software.

koff	Binder
0.000714 s⁻¹	B1
0.00126 s⁻¹	B2
0.00373 s⁻¹	B3
0.000609 s⁻¹	B4
0.0268 s⁻¹	B5
0.00156 s⁻¹	B6
0.0095 s⁻¹	B7
0.000918 s⁻¹	B8
0.00184 s⁻¹	B9
0.000525 s⁻¹	B10
0.000239 s⁻¹	B11
0.00105 s⁻¹	B12
0.00114 s⁻¹	B13
0.00232 s⁻¹	B14
0.000346 s⁻¹	B15
0.00349 s⁻¹	B16
0.00116 s⁻¹	B17
0.0017 s⁻¹	B18
0.00182 s⁻¹	B19
0.000237 s⁻¹	B20
0.00206 s⁻¹	B21
0.00188 s⁻¹	B22
0.000142 s⁻¹	B23
0.00143 s⁻¹	B24
0.00159 s⁻¹	B25
0.00151 s⁻¹	B26

koff	Binder
0.0011 s⁻¹	B27
0.000391 s⁻¹	B28
0.00115 s⁻¹	B29
0.00019 s⁻¹	B30
0.00156 s⁻¹	B31
0.000767 s⁻¹	B32
0.00101 s⁻¹	B33
0.00238 s⁻¹	B34
0.000209 s⁻¹	B35
0.000766 s⁻¹	B36
0.00187 s⁻¹	B37
0.00164 s⁻¹	B38
0.000603 s⁻¹	B39
0.00146 s⁻¹	B40
0.000857 s⁻¹	B41
0.00153 s⁻¹	B42
0.00171 s⁻¹	B43
0.000472 s⁻¹	B44
0.000431 s⁻¹	B45
0.00106 s⁻¹	B46
0.000316 s⁻¹	B47
0.000238 s⁻¹	B48
0.00275 s⁻¹	B49
0.00391 s⁻¹	B50
0.00223 s⁻¹	B51
0.000158 s⁻¹	B52
